Source: paper PMC8685691, “A serum-stable RNA aptamer specific for SARS-CoV-2 neutralizes viral entry”

What was measured:
[1] = target: T1, SARS-CoV-2 spike RBD, WT, His-tagged (SARS-CoV-2 (WT), UniProt P0DTC2 319-532); assay: BLI competition
[2] = target: T1, SARS-CoV-2 spike RBD, WT, His-tagged; assay: BLI
[3] = target: T1, SARS-CoV-2 spike RBD, WT, His-tagged; assay: FIDA
[4] = target: SARS-CoV-2 spike RBD, C-tagged (SARS-CoV-2 (WT), UniProt P0DTC2 319-532); assay: BLI competition

| Binder | IC50 [1] [nM] | binding result [4] | also measured |
| --- | --- | --- | --- |
| RBD-PB6-Ta (structured_RNA, 2'-fluoro pyrimidines) RNA: GGCGACAUUUGUAAUUCCUGGACCGAUACUUCCGUCAGGACAGAGGUUGCCA | 200 |  |  |
| RBD-PB6 (structured_RNA, 2'-fluoro pyrimidines) RNA: GGGGCCACCAACGACAUUUGUAAUUCCUGGACCGAUACUUCCGUCAGGACAGAGGUUGAUAUAAAUAGUGCCCAUGGAUCC | ~250 |  | Kd [2]: ~18 nM; Kd [3]: 129 nM |
| RBD-PB6-Tinv (structured_RNA, 2'-fluoro pyrimidines) RNA: GGCGACAUUUGUAAUAGGACGACCGAUACUUCCGUGUCCUCAGAGGUUGCCA |  | no binding |  |
| GGCGACAUUUGUAAUUCCUGGAUCAGGACAGAGGUUGCCA (structured_RNA, 2'-fluoro pyrimidines) [RBD-PB6-Td] |  | no binding |  |
| GGUUUGUAAUUCCUGGACCGAUACUUCCGUCAGGACAGACCA (structured_RNA, 2'-fluoro pyrimidines) [RBD-PB6-Tb] |  | no binding |  |
| GGUCCUGGACCGAUACUUCCGUCAGGACCA (structured_RNA, 2'-fluoro pyrimidines) [RBD-PB6-Tc] |  | no binding |  |
